From publication PMC10889886

Target: HCoV-OC43 Spike antigen (HCoV-OC43) (UniProt P36334)
Assay: SEC-MALS

Work on “HCoV-OC43 Spike antigen (from UniProt P36334 14-1353) (natural protein)” yielded a stoichiometry N of 3.
